The values below come from patent US20140296491A1 (MILTENYI BIOTECH, published 2014).

Experiment [1] has as its target T1, human CD8 on CD8+ cells of human PBMCs (human, UniProt P01732 22-235).
T1 construct: whole, on cells; Immunization and panning used recombinant hCD8a (Ser 22-Asp 182, His tag); The flow cytometry used native CD8 on PBMCs; also called hCD8; hCD8a
Briefly: phage display selection on hCD8a with EDTA elution, then clone screening. The method, then:
Flow cytometry results of screened clones of library 2a from EDTA eluates after panning cycle IIb with triple depletion of Ca2+ independent hCD8a binders. After exclusion of dead cells and cell debris CD8+ cells were identified as a CD3+/CD4− cell population. hCD8-specific Fabs were detected by anti-polyhistidine-PE (anti-HIS-PE). Mean fluorescence intensities (MFI) of anti-HIS-PE staining were plotted to evaluate the influence of 10 mM EDTA. 75_A1 (uninoculated medium) and 75_C1 (anti-MUC1 scFv expressing clone) were negative controls, while 75_B1 (CD8 BW135/80) served as positive control. FIG. 7: MFI before and after addition of EDTA. FIG. 8: MFI ratio (−)EDTA/(+)EDTA. FIG. 9: Dot plots of clone KRR75_G1 before and after the addition of 10 mM EDTA.
Variations in panning process were tested to direct the selection towards Ca2+ dependent binding. […]
Clones generated by different selection procedures and stages were characterized upon hCD8 specificity and potential Ca2+ dependent binding. […] Supernatants of these cultures were analyzed for the presence hCD8 specific Fabs using a flow cytometric staining assay in the Ca2+ containing buffer HBSS (Hank's balanced salt solution) +0.5% BSA. […] Bound Fabs were detected via the polyhistidine tag of the Fab and an anti-polyhistidine tag-fluorochrome conjugate. […]

The target of experiment [2] is T1, human CD8 on CD8+ cells of human PBMCs. Briefly: flow cytometry on human CD8+ cells, before and after EDTA. The method, then:
FIGS. 10, 11, and 12 show flow cytometry results of screened clones after panning cycle IIIb. Flow cytometry results of screened clones (see 4.4.2.2) of library 1a and 2a from EDTA eluates after panning cycle IIIb. After exclusion of dead cells and cell debris CD8+ cells were identified as a CD3+/CD4− cell population. hCD8 specific Fabs were detected by anti-His-PE. Mean fluorescence intensities (MFI) of anti-His-PE staining were plotted to evaluate the influence of 10 mM EDTA on staining with certain Fab clones. 77_A1 (uninoculated medium) and 77_C1 (anti-MUC1 scFv expressing clone) were negative controls, while 77_B1 (CD8 BW135/80) served as positive control for hCD8 staining. FIG. 10: MFI before and after addition of EDTA. FIG. 11: MFI ratio (−)EDTA/(+)EDTA. FIG. 12: Dot plot of clone KRR77_D1 before and after the addition of 10 mM EDTA.
Clones generated by different selection procedures and stages were characterized upon hCD8 specificity and potential Ca2+ dependent binding. Therefore, Fab expressions of single clones were performed in a microtiter plate format (150 μL). Supernatants of these cultures were analyzed for the presence hCD8 specific Fabs using a flow cytometric staining assay in the Ca2+ containing buffer HBSS (Hank's balanced salt solution) +0.5% BSA. […] Bound Fabs were detected via the polyhistidine tag of the Fab and an anti-polyhistidine tag-fluorochrome conjugate. […]
(A flow cytometer gives signals particle by particle.)

T1 sequence (P01732 22-235): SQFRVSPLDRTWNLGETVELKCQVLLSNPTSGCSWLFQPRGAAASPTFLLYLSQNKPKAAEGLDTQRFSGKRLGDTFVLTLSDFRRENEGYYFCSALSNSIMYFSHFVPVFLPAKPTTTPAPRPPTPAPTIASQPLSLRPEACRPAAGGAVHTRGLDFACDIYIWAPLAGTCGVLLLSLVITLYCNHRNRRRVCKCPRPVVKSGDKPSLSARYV

B1: chimeric recombinant Fab CD8 KRR75_G1 (Fab, V domains shown)
VH: EVQLQQSGPELVKPGASVKMSCKASGYTFTDYVISWMKQRTGQGLEWIGEIYPGSGSDYYNEKFKGKATLTADKSSNTAYMQLSSLTSEDSAVYFCARWGITDYFDVWGAGTTVTVSS
VL: ETTVTQSPASLSMAIGEKVTIRCITSTDIDDDMNWYQQKPGEPPKLLISEGNTLRPGVPSRFSSSGYGTDFVFTIENMLSEDVADYYCLQSDNLPFTFGSGTKLEIK
notes: also called clone KRR75_G1
B1: the binding result in experiment [1] is “binds”.

B2: chimeric recombinant Fab CD8 KRR77_D1 (Fab, V domains shown)
VH: QVQLKESGPGLVQPSQSLSITCTVSGFSLTSYGVHWVRQSPGKGLEWLGVIWRGGSTDYNAAFMSRLSITKDNSKSQVFFKMNSLQADDTAIYYCAKNSITPFAYWGQGTLVTVSA
VL: B1 VL
notes: also called clone KRR77_D1
Take B2: the binding result in experiment [2] is on record as “binds”.
